From paper PMC5789952 (Proceedings of the National Academy of Sciences of the …, 2017)
Numbering of substitutions follows the chain as printed. Names and notes keep the numbering of the source. One block for each binder: values may come before it.

Columns and labels:
[1] = target: T1, IRF9–IAD_(182–385) E347A E348A (crystallised form in the complex) (mouse, UniProt Q61179 182-385, E347A | E348A); assay: crystal structure
T1 sequence (looked up): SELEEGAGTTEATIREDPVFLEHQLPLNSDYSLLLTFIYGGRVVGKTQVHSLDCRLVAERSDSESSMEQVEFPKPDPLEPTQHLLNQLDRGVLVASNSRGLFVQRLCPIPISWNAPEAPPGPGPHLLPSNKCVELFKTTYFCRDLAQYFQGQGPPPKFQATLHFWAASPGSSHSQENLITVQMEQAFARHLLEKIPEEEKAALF

STAT1_(136–713) E169V = target: T2, STAT1_(136–713) E169V (mouse, UniProt P42225 136-713, E169V); assay: ITC
T2 sequence (looked up): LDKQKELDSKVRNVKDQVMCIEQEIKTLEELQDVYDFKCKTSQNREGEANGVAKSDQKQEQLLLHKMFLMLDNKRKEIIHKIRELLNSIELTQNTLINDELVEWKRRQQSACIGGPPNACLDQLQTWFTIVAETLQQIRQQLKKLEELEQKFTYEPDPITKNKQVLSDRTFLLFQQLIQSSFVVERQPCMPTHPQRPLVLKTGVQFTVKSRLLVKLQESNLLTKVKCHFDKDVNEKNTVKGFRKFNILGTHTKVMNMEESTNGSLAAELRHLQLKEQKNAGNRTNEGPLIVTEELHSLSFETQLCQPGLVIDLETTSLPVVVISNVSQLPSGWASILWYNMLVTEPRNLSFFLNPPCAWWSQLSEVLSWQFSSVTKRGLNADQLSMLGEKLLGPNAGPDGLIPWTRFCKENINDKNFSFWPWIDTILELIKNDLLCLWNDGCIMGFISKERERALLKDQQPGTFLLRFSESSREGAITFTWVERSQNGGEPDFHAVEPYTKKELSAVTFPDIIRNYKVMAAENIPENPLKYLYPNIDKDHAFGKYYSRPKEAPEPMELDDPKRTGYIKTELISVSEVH

STAT1_(136–713) = target: T3, STAT1_(136–713) (mouse, UniProt P42225 136-713); assay: ITC
T3 sequence (looked up): T2 sequence (looked up) with V34E

STAT2_(133–679) = target: T4, STAT2_(133–679) (mouse, UniProt Q9WVL2 133-679); assay: ITC
T4 sequence (looked up): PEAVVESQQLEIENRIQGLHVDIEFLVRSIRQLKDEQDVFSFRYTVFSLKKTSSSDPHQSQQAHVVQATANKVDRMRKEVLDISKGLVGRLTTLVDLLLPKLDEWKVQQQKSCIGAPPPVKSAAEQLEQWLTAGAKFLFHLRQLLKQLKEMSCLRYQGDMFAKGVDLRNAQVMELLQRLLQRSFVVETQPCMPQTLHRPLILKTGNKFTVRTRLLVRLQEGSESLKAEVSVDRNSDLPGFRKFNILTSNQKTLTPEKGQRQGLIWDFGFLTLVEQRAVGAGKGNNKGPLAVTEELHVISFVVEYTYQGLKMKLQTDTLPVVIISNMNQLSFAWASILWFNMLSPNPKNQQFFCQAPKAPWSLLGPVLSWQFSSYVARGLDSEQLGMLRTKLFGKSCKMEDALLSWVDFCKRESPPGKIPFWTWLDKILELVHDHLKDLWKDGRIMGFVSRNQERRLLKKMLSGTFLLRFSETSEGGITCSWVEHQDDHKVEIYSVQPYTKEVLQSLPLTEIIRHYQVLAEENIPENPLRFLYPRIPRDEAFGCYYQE

STAT2_(133–679) V171E = target: T5, STAT2_(133–679) V171E (mouse, UniProt Q9WVL2 133-679, V171E); assay: ITC
T5 sequence (looked up): T4 sequence (looked up) with V39E

STAT2_(133–738) = target: T6, STAT2_(133–738) (mouse, UniProt Q9WVL2 133-738); assay: SEC
T6 sequence (looked up): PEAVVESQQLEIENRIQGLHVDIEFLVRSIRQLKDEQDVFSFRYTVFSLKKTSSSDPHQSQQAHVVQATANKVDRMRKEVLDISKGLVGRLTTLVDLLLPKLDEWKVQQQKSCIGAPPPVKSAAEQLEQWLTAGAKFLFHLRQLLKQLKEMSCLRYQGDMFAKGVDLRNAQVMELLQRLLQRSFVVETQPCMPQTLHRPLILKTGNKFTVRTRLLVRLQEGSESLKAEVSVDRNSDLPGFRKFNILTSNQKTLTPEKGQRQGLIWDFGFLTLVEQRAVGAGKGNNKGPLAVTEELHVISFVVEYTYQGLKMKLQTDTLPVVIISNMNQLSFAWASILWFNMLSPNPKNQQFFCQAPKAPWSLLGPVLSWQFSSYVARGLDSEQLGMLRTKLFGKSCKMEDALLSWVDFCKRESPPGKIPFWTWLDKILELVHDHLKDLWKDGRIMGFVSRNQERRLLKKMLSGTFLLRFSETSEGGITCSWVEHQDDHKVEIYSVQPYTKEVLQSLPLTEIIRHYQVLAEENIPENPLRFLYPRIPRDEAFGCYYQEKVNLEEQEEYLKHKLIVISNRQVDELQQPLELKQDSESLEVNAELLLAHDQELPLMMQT

binding result [1]: binds
B1: STAT2–CCD_(133–315) Q242A K243A (crystallised form) (domain or fragment, mouse, UniProt Q9WVL2 133-315, looked up)
chain: PEAVVESQQLEIENRIQGLHVDIEFLVRSIRQLKDEQDVFSFRYTVFSLKKTSSSDPHQSQQAHVVQATANKVDRMRKEVLDISKGLVGRLTTLVDLLLPKLDEWKVQQAASCIGAPPPVKSAAEQLEQWLTAGAKFLFHLRQLLKQLKEMSCLRYQGDMFAKGVDLRNAQVMELLQRLLQRS

Kd (STAT1_(136–713) E169V): 116 nM
Kd (STAT1_(136–713)): 5000 nM
Kd (STAT2_(133–679)): 10 nM
Kd (STAT2_(133–679) V171E): 2500 nM
B2: IRF9–IAD_(182–385) (domain or fragment, mouse, UniProt Q61179 182-385, looked up)
chain: T1 sequence (looked up) with A166E, A167E

Kd (STAT2_(133–679)): 17 nM
B3: IRF9–IAD IF3 (L326A, F330A, I376A) (domain or fragment, mouse, UniProt Q61179 182-385, looked up)
chain: T1 sequence (looked up) with L145A, F149A, A166E, A167E, I195A

Kd (STAT2_(133–679)): 11 nM
B4: IRF9–IAD IF2 (R324E, D325K, Q331E, Q333E, P335S) (domain or fragment, mouse, UniProt Q61179 182-385, looked up)
chain: T1 sequence (looked up) with R143E, D144K, Q150E, Q152E, P154S, A166E, A167E

binding result (STAT2_(133–738)): binds
B5: full-length IRF9 (IRF9FL) (natural protein, mouse, UniProt Q61179 1-399, looked up)
chain: MASGKVRCTRKLRSWIVEQVESGHFPGVCWDDAAKTMFRIPWKHAGKQDFREDQDAAIFKAWALFKEKHKDGDIGHPAVWKTRLRCALNKSSEFEEVPERGRMDVAEPYKVYRILPAGTLPNQPRNQKSPCKRSISCVSPEREENMENGRTNGVVNHSDSGSNIGGGGNGSNRSDSNSNCNSELEEGAGTTEATIREDPVFLEHQLPLNSDYSLLLTFIYGGRVVGKTQVHSLDCRLVAERSDSESSMEQVEFPKPDPLEPTQHLLNQLDRGVLVASNSRGLFVQRLCPIPISWNAPEAPPGPGPHLLPSNKCVELFKTTYFCRDLAQYFQGQGPPPKFQATLHFWEESPGSSHSQENLITVQMEQAFARHLLEKIPEEEKAALFLLQHTEQSPSALGH
